We go through two sequences from patent publication US20240294926.

In the data set the test system is PARP (endogenous, MDA-MB-231 cells) (Homo sapiens). Nature of the data set: cell_activity. To be noted: cholesterol-conjugated, HEG loop, 5 uM, 48 h.

As to “CCCAGCAAACAAGCCT (double strand) [OX401]”, under “3 PS linkages on each strand, PARP activation weaker than OX413”, the activity (% PARylated cells) worked out at 20. Turning to “CCCAGCAAACAAGCCT (double strand) [OX413]”, under “FANA (2'-deoxy-2'-fluoroarabino) nucleotides and PS linkages (positions only in images), PARP activation”, the activity (% PARylated cells) is more than 40.
